Laboratory results published in patent US20120316071A1 (published 2012).

Assays:
Recombinant Human DLL4 [1] = molecular target: T1, Recombinant Human DLL4 (human, UniProt Q9NR61 27-524); test: ECL (MSD) 96-well plate assay; plate coated with 15 ug/mL DLL4; 0.004 uM Fab
T1 construct: Bought recombinant protein (R&D Systems Cat#1506-D4/CF); also called delta-like protein 4; Delta-like 4

Recombinant Human DLL4 [2] = molecular target: T1, Recombinant Human DLL4; test: ECL (MSD) 96-well plate assay; plate coated with 30 ug/mL DLL4; 0.02 uM Fab
[3] = molecular target: T2, Recombinant Human DLL4 (R&D Systems Cat#1506-D4/CF) (human, UniProt Q9NR61 27-524); test: ECL (Meso Scale Discovery) multispot binding assay, DLL4 immobilised, Fab at 100 nM
T2 construct: Bought recombinant protein; also called delta-like protein 4; Delta-like 4

| Binder | ECL signal (Recombinant Human DLL4 [1]) | Signal/Noise (Recombinant Human DLL4 [1]) | ECL signal (Recombinant Human DLL4 [2]) | Signal/Noise (Recombinant Human DLL4 [2]) | ECL signal [3] |
| --- | --- | --- | --- | --- | --- |
| Fab VH1-46_IGHD6-6*01_IGHJ1*01 & L6_IGKJ1*01 (Fab, V domains shown, Tested as a Fab made in E. coli; VH was cloned into Plasmid A (CH1 constant region, His6 and Flag tags) and the kappa VL into Plasmid C (kappa CL); also called parent "Hit" Fab; parental) VH: QVQLVQSGAEVKKPGASVKVSCKASGYTFTSYYMHWVRQAPGQGLEWMGIINPSGGSTSYAQKFQGRVTMTRDTSTSTVYMELSSLRSEDTAVYYCAREEYSSSSAEYFQHWGQGTLVTVSS VL: not shown | 4260 | 29.2 | 8710 | 23 | – |
| Fab VH1-46_IGHD6-6*01_IGHJ1*01 E100A & L6_IGKJ1*01 (Fab, V domains shown, Heavy chain CDR3 alanine mutant of the parent Fab; Fab format with CH1, kappa CL, His6 and Flag tags from the expression plasmids) VH: QVQLVQSGAEVKKPGASVKVSCKASGYTFTSYYMHWVRQAPGQGLEWMGIINPSGGSTSYAQKFQGRVTMTRDTSTSTVYMELSSLRSEDTAVYYCAREAYSSSSAEYFQHWGQGTLVTVSS VL: not shown | 536 | 3.7 | 1300 | 3.4 | – |
| Fab VH1-46_IGHD6-6*01_IGHJ1*01 H111A & L6_IGKJ1*01 (Fab, V domains shown, Heavy chain CDR3 alanine mutant of the parent Fab; Fab format with CH1, kappa CL, His6 and Flag tags from the expression plasmids) VH: QVQLVQSGAEVKKPGASVKVSCKASGYTFTSYYMHWVRQAPGQGLEWMGIINPSGGSTSYAQKFQGRVTMTRDTSTSTVYMELSSLRSEDTAVYYCAREEYSSSSAEYFQAWGQGTLVTVSS VL: not shown | 5020 | 34.4 | 11600 | 30.6 | – |
| Fab VH1-46_IGHD6-6*01_IGHJ1*01 S102A & L6_IGKJ1*01 (Fab, V domains shown, Heavy chain CDR3 alanine mutant of the parent Fab; Fab format with CH1, kappa CL, His6 and Flag tags from the expression plasmids) VH: QVQLVQSGAEVKKPGASVKVSCKASGYTFTSYYMHWVRQAPGQGLEWMGIINPSGGSTSYAQKFQGRVTMTRDTSTSTVYMELSSLRSEDTAVYYCAREEYASSSAEYFQHWGQGTLVTVSS VL: not shown | 10300 | 70.8 | 19100 | 50.3 | – |
| Fab VH5-51_IGHD5-18*01>3_IGHJ4*01 G100K/G104T (H:KT) & V3-4_IGLJ1*01 S36A (Fab, V domains shown, Fab expressed in E. coli; Plasmid A adds CH1 with His6 and Flag tags to the heavy chain; Plasmid E adds lambda CL to the light chain; also called G100K/G104T & S36A) VH: EVQLVQSGAEVKKPGESLKISCKGSGYSFTSYWIGWVRQMPGKGLEWMGIIYPGDSDTRYSPSFQGQVTISADKSISTAYLQWSSLKASDTAMYYCARRKYSYTYDYFDYWGQGTLVTVSS VL: QTVVTQEPSFSVSPGGTVTLTCGLSSGSVSTSYYPAWYQQTPGQAPRTLIYSTNTRSSGVPDRFSGSILGNKAALTITGAQADDESDYYCVLYMGSGISYVFGTGTKVTVL | – | – | – | – | 9690 |
| Fab VH5-51_IGHD5-18*01>3_IGHJ4*01 G100K/G104T (H:KT) & V3-4_IGLJ1*01 T31A (Fab, V domains shown, Fab expressed in E. coli; Plasmid A adds CH1 with His6 and Flag tags to the heavy chain; Plasmid E adds lambda CL to the light chain; also called G100K/G104T & T31A) VH: EVQLVQSGAEVKKPGESLKISCKGSGYSFTSYWIGWVRQMPGKGLEWMGIIYPGDSDTRYSPSFQGQVTISADKSISTAYLQWSSLKASDTAMYYCARRKYSYTYDYFDYWGQGTLVTVSS VL: QTVVTQEPSFSVSPGGTVTLTCGLSSGSVSASYYPSWYQQTPGQAPRTLIYSTNTRSSGVPDRFSGSILGNKAALTITGAQADDESDYYCVLYMGSGISYVFGTGTKVTVL | – | – | – | – | 13500 |
| Fab VH5-51_IGHD5-18*01>3_IGHJ4*01 G100K/G104T (H:KT) & V3-4_IGLJ1*01 V29A (Fab, V domains shown, Fab expressed in E. coli; Plasmid A adds CH1 with His6 and Flag tags to the heavy chain; Plasmid E adds lambda CL to the light chain; also called G100K/G104T & V29A) VH: EVQLVQSGAEVKKPGESLKISCKGSGYSFTSYWIGWVRQMPGKGLEWMGIIYPGDSDTRYSPSFQGQVTISADKSISTAYLQWSSLKASDTAMYYCARRKYSYTYDYFDYWGQGTLVTVSS VL: QTVVTQEPSFSVSPGGTVTLTCGLSSGSASTSYYPSWYQQTPGQAPRTLIYSTNTRSSGVPDRFSGSILGNKAALTITGAQADDESDYYCVLYMGSGISYVFGTGTKVTVL | – | – | – | – | 9320 |
| Fab VH5-51_IGHD5-18*01>3_IGHJ4*01 G100K/G104T (H:KT) & V3-4_IGLJ1*01 Y33A (Fab, V domains shown, Fab expressed in E. coli; Plasmid A adds CH1 with His6 and Flag tags to the heavy chain; Plasmid E adds lambda CL to the light chain; also called G100K/G104T & Y33A) VH: EVQLVQSGAEVKKPGESLKISCKGSGYSFTSYWIGWVRQMPGKGLEWMGIIYPGDSDTRYSPSFQGQVTISADKSISTAYLQWSSLKASDTAMYYCARRKYSYTYDYFDYWGQGTLVTVSS VL: QTVVTQEPSFSVSPGGTVTLTCGLSSGSVSTSAYPSWYQQTPGQAPRTLIYSTNTRSSGVPDRFSGSILGNKAALTITGAQADDESDYYCVLYMGSGISYVFGTGTKVTVL | – | – | – | – | 7700 |
| Fab VH5-51_IGHD5-18*01>3_IGHJ4*01 G100K/G104T (H:KT) & V3-4_IGLJ1*01 Y34A (Fab, V domains shown, Fab expressed in E. coli; Plasmid A adds CH1 with His6 and Flag tags to the heavy chain; Plasmid E adds lambda CL to the light chain; also called G100K/G104T & Y34A) VH: EVQLVQSGAEVKKPGESLKISCKGSGYSFTSYWIGWVRQMPGKGLEWMGIIYPGDSDTRYSPSFQGQVTISADKSISTAYLQWSSLKASDTAMYYCARRKYSYTYDYFDYWGQGTLVTVSS VL: QTVVTQEPSFSVSPGGTVTLTCGLSSGSVSTSYAPSWYQQTPGQAPRTLIYSTNTRSSGVPDRFSGSILGNKAALTITGAQADDESDYYCVLYMGSGISYVFGTGTKVTVL | – | – | – | – | 2200 |
